Measured values reported in paper PMC2920065.

Tests used:
[1] = target: GST fusion of the wild type DEP domain of RGS7 (R7-DEP) (bovine) (UniProt O46470); assay: pull-down
[2] = target: GST-DEP F107A/F110A double mutant (bovine) (UniProt O46470); assay: pull-down

In the case of “Gβ5 I282A/I283A double mutant in complex with the RGS7^249-469 construct (from UniProt O46470 249-469)”, the fold reduction of binding against wild-type Gβ5 [1] is reported as 5 fold.

Substance “Gβ5 F284A mutant in complex with the RGS7^249-469 construct (from UniProt O46470 249-469)” has a fold reduction of binding against wild-type Gβ5 [1] of 5 fold.

“complex of wild-type Gβ5 with the RGS7^249-469 construct (from UniProt O46470 249-469)” was tested, and the percent bound [2] was 12% and the percent bound [1] was > 50%.

For “Gβ5 D259A mutant in complex with the RGS7^249-469 construct (from UniProt O46470 249-469)”, the increase of the fraction bound against wild-type Gβ5 [1] was 10%.
